Experimental data taken from patent US20090118184A1 (UNIVERSITY OF ROCHESTER, published 2009).

Target: T1, factor VIIIa A1/A3C1C2 dimer, Glu1984Ala (human, UniProt P00451 20-391; P00451 1709-2351)
T1 sequence 1: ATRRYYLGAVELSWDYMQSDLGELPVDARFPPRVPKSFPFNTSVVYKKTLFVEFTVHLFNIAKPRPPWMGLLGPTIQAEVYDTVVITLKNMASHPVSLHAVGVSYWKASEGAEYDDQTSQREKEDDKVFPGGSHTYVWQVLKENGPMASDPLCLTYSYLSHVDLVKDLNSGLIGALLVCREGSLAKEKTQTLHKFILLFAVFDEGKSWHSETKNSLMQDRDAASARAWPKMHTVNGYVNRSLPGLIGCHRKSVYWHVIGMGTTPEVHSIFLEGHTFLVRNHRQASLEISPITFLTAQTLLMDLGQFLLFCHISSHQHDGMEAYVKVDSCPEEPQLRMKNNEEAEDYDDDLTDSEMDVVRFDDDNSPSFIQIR
T1 sequence 2: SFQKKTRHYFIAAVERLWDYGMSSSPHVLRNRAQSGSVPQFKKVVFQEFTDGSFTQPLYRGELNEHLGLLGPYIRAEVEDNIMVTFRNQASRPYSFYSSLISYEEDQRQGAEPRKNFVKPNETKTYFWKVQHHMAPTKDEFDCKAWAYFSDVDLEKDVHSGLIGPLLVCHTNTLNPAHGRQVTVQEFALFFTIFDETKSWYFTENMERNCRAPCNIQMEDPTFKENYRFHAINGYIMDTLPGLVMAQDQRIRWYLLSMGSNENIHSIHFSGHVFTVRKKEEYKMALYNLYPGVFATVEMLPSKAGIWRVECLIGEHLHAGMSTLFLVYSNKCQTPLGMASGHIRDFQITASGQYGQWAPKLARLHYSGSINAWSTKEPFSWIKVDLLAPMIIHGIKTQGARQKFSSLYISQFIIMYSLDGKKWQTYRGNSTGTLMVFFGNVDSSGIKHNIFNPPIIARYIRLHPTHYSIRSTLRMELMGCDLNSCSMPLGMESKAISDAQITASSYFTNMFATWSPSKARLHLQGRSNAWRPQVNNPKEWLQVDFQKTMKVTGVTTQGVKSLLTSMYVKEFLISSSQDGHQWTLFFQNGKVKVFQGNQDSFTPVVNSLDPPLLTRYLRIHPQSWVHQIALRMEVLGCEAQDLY
Test: cell-based or functional assay

B1: factor VIIIa A2 subunit, wild type (other)
chain: SVAKKHPKTWVHYIAAEEEDWDYAPLVLAPDDRSYKSQYLNNGPQRIGRKYKKVRFMAYTDETFKTREAIQHESGILGPLLYGEVGDTLLIIFKNQASRPYNIYPHGITDVRPLYSRRLPKGVKHLKDFPILPGEIFKYKWTVTVEDGPTKSDPRCLTRYYSSFVNMERDLASGLIGPLLICYKESVDQRGNQIMSDKRNVILFSVFDENRSWYLTENIQRFLPNPAGVQLEDPEFQASNIMHSINGYVFDSLQLSVCLHEVAYWYILSIGAQTDFLSVFFSGYTFKHKMVYEDTLTLFPFSGETVFMSMENPGLWILGCHNSDFRNRGMTALLKVSSCDKNTGDYYEDSYEDISAYLLSKNNAIEPR
Factor VIIIa Decay relative to the WT value, Factor IXa absent: 0.29 relative to WT | Factor VIIIa Decay relative to the WT value, Factor IXa present: 0.18 relative to WT | Factor VIIIa Decay, Factor IXa absent: 0.0241 min⁻¹ | Factor VIIIa Decay, Factor IXa present: 0.0027 min⁻¹
